Experimental data published in US20190040115A1 (IMMATICS BIOTECHNOLOGIES, published 2019).

B1: LLDAFSIKL (peptide)
peptide: LLDAFSIKL
B2: IIDPPLHGQLL (peptide)
peptide: IIDPPLHGQLL
B3: FADELSHLL (peptide)
peptide: FADELSHLL
B4: ILLDRLFSV (peptide)
peptide: ILLDRLFSV
B5: SIDDVVKKL (peptide)
peptide: SIDDVVKKL
B6: SLDEVAVSL (peptide)
peptide: SLDEVAVSL
B7: GIDDLHISL (peptide)
peptide: GIDDLHISL
B8: KLPGFPTQDDEV (peptide)
peptide: KLPGFPTQDDEV
B9: FLAEAARSL (peptide)
peptide: FLAEAARSL
B10: AVDNILLKL (peptide)
peptide: AVDNILLKL
B11: ILDGIIREL (peptide)
peptide: ILDGIIREL
B12: TLLEVDAIVNA (peptide)
peptide: TLLEVDAIVNA
B13: LLDMSLVKL (peptide)
peptide: LLDMSLVKL
B14: HTLPHEIVVNL (peptide)
peptide: HTLPHEIVVNL
B15: NLPSELPQL (peptide)
peptide: NLPSELPQL
B16: SLAGLVLYV (peptide)
peptide: SLAGLVLYV
B17: ELDKIYETL (peptide)
peptide: ELDKIYETL
B18: NLQEKVPEL (peptide)
peptide: NLQEKVPEL
B19: LIDEAAQML (peptide)
peptide: LIDEAAQML
B20: QIDSIHLLL (peptide)
peptide: QIDSIHLLL
B21: ALKDLVNLI (peptide)
peptide: ALKDLVNLI
B22: NLDATVTAL (peptide)
peptide: NLDATVTAL
B23: GLDTILQNL (peptide)
peptide: GLDTILQNL
B24: GLDKVITVL (peptide)
peptide: GLDKVITVL
B25: FLDDGNQML (peptide)
peptide: FLDDGNQML
B26: IIDDKPIGL (peptide)
peptide: IIDDKPIGL
B27: GLLDVMYQV (peptide)
peptide: GLLDVMYQV
B28: LLDALQHEL (peptide)
peptide: LLDALQHEL
B29: GTIPLIESL (peptide)
peptide: GTIPLIESL
B30: LLAKAVQNV (peptide)
peptide: LLAKAVQNV
B31: FMYAGQLTL (peptide)
peptide: FMYAGQLTL
B32: ILDNSPAFL (peptide)
peptide: ILDNSPAFL
B33: NLPNTNSILGV (peptide)
peptide: NLPNTNSILGV
B34: ILDYIHNGL (peptide)
peptide: ILDYIHNGL
B35: YVDSEGIVRM (peptide)
peptide: YVDSEGIVRM
B36: SIIPYLLEA (peptide)
peptide: SIIPYLLEA

Target: T1, HLA-A*02:01 (human)
T1 construct: captured on streptavidin plates; also called peptide-receptive MHC molecules
Test: UV peptide exchange ELISA (anti-b2m); yield grade: + >10%, ++ >20%, +++ >50, ++++ >75%
Procedure, shortened: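 Binding capacity assessed as exchange yield: only peptides that stabilize peptide-receptive HLA-A*02:01 prevent complex dissociation after UV cleavage of the conditional ligand. Intact complexes were detected via β2m by ELISA.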

peptide exchange yield | Binder
50 to 75% | B1
20 to 50% | B2
50 to 75% | B3
> 75% | B4
20 to 50% | B5
> 75% | B6
50 to 75% | B7
20 to 50% | B8
> 75% | B9
50 to 75% | B10
50 to 75% | B11
> 75% | B12
50 to 75% | B13
50 to 75% | B14
50 to 75% | B15
> 75% | B16
10 to 20% | B17
50 to 75% | B18

peptide exchange yield | Binder
50 to 75% | B19
50 to 75% | B20
> 75% | B21
50 to 75% | B22
> 75% | B23
50 to 75% | B24
50 to 75% | B25
50 to 75% | B26
> 75% | B27
50 to 75% | B28
10 to 20% | B29
50 to 75% | B30
> 75% | B31
50 to 75% | B32
50 to 75% | B33
50 to 75% | B34
10 to 20% | B35
> 75% | B36
